This is an account of results in article PMC12886386.

The term stoichiometry N denotes a count of units in the complex or per binding partner.

For this assay, the target named is His10-pA-Tn5 (His10-tagged protein A-Tn5 transposase fusion) (not stated | Escherichia coli). Put plainly: SEC; HiLoad 16/600 Superdex 200 pg after Ni-NTA; buffer C: 50 mM Tris-HCl pH 7.5, 800 mM NaCl, 0.2 mM EDTA, 2 mM DTT, 10% (v/v) glycerol; fractions checked by SDS-PAGE and 260 nm/280 nm ratio. (In gel filtration, larger molecules generally elute earlier.)

For the substance “His10-pA-Tn5 (His10-tagged protein A-Tn5 transposase fusion) (enzyme)”, the stoichiometry N is 2.
